Data from patent US7744887B2, “Human antibodies interacting with HIV gp41” (priority 2004, dated 2010).

What was measured:
[1] = tested on: CXCR4-tropic HIV-1 strain HXB2; type: cell-based; settings: for effect on HIV-HXB2 replication: single cycle infectivity assay, FIG. 9
[2] = tested on: HIV-1 (envelope from strain HXB2); experiment: HIV Reporter Particle (HIVRP) assay; type: cell-based; settings: envelope from strain HXB2, purified scFvs
CCR5-tropic strain BaL = type: cell-based, HIV-1
[3] = target: interaction of biotinylated IZN36 with C34-HA (Human immunodeficiency virus type 1 group M subtype B, UniProt P04578); settings: ALPHASCREEN, FIG. 15
5-Helix [4] = target: T1, 5-Helix (Human immunodeficiency virus type 1 group M subtype B, UniProt P04578, C598G/DEL583-596/DEL601-623/N624G); settings: Biacore, peptide 5-Helix
Excerpt: (§1) Affinity of D5 IgG for the hydrophobic pocket of HR1—The affinity of D5 IgG for various peptides was next determined by surface plasmon resonance (Biacore).

IZN17-Q567R = experiment: Surface plasmon resonance (Biacore), IZN17-Q567R; type: binding, HIV-1; settings: peptide IZN17-Q567R
Excerpt: as §1

IZN17 = experiment: Surface plasmon resonance (Biacore), IZN17; type: binding, HIV-1; settings: peptide IZN17
Excerpt: as §1

IZN17-L565M = experiment: Surface plasmon resonance (Biacore), IZN17-L565M; type: binding, HIV-1; settings: peptide IZN17-L565M
Excerpt: as §1

[5] = tested on: dual tropic strain (CCR5 and CXCR4) HIV 89.6; type: cell-based, HIV-1
5-Helix [6] = target: T1, 5-Helix; settings: ALPHASCREEN, FIG. 10
IZN17-G572D = experiment: Surface plasmon resonance (Biacore), IZN17-G572D; type: binding, HIV-1; settings: peptide IZN17-G572D
Excerpt: as §1

IQN17-2Pro = experiment: Surface plasmon resonance (Biacore), IQN17-2Pro; type: binding, HIV-1; settings: peptide IQN17-2Pro
Excerpt: as §1

[7] = tested on: HIV particles pseudotyped with the surface protein of the Vesicular Stomatitis Virus (VSV-G); type: cell-based
IZN36 = IZN36 (Human immunodeficiency virus type 1 group M subtype B, UniProt P04578); settings: ALPHASCREEN, FIG. 10
IQN17 = experiment: ALPHASCREEN D5 IgG/IQN17 binding assay; design: species or system HIV-1
HIV strain MN-1 = type: cell-based, HIV-1; settings: MN-1, single cycle infectivity assay

B1: B11 scFv: human scFv from phage display, SEQ ID NO:8, VH and VL joined by (G4S)3 linker; binds gp41 HR1 (protein)
scFv: QVQLVQSGAEVKKPGSSVKVSCKASGGTFSSYAISWVRQAPGQGLEWMGGIIPLFDTSNYAQNFQGRITITADKSTSTAYMELSSLRFEDTAIYYCARDNPLLLAMDVWGKGTTVTVSSGGGGSGGGGSGGGGSDIQMTQSPSTLSASIGDRVTITCRASEGIYHWLAWYQQKPGKAPKLLIYKASSLASGAPSRFSGSGSGTDFTLTISSLQPDDFATYYCQQYSNYPLTFGGGTKLEIK
modifications: Homo sapien
- effect on HIV-HXB2 replication [1]: displayed anti-viral properties against the HIV—HXB2 strain
- ability to prevent HIV-1 entry [2]: capable of inhibiting HIV-1 entry

B2: D5 IgG: full length human IgG4/kappa carrying D5 VH (SEQ ID NO:4) and VL (SEQ ID NO:6) (antibody, V domains shown)
VH: QVQLVQSGAEVRKPGASVKVSCKASGDTFSSYAISWVRQAPGQGLEWMGGIIPIFGTANYAQKFQGRVTITADESTSTAYMELSSLRSEDTAIYYCARDNPTLLGSDYWGKGTLVTVSS
VL: DIQMTQSPSTLSASIGDRVTITCRASEGIYHWLAWYQQKPGKAPKLLIYKASSLASGAPSRFSGSGSGTDFTLTISSLQPDDFATYYCQQYSNYPLTFGGGTKLEIK
modifications: human IgG4/kappa constant regions; Homo sapien
- fold more sensitive than HXB2 (CCR5-tropic strain BaL; BaL versus HXB2): approximately 3 fold
- effect on the interaction of C34-HA with IZN36 [3]: prevented the interaction of C34-HA with IZN36
- Off (5-Helix [4]): 1.0e−4 1/S
- On (5-Helix [4]): 390000 M⁻¹ s⁻¹
- Kd (IZN17-Q567R): 1.5 nM
- Off (IZN17-Q567R): 1.2e−3 1/S
- On (IZN17-Q567R): 800000 M⁻¹ s⁻¹
- Kd (IZN17): 0.1 nM
- Off (IZN17): 5.9e−4 1/S
- On (IZN17): 6.1e+06 M⁻¹ s⁻¹
- Kd (IZN17-L565M): 0.3 nM
- Off (IZN17-L565M): 8.9e−4 1/S
- On (IZN17-L565M): 3e+06 M⁻¹ s⁻¹
- fold less susceptible to neutralization than HXB2 ([5]; 89.6 versus HXB2): approximately 6 fold
- interaction with biotinylated 5-Helix (5-Helix [6]): clear interaction
- Kd (IZN17-G572D): 550 nM
- Off (IZN17-G572D): 3.0e−3 1/S
- On (IZN17-G572D): 5500 M⁻¹ s⁻¹
- Kd (IQN17-2Pro): 240 nM
- Off (IQN17-2Pro): 2.2e−3 1/S
- On (IQN17-2Pro): 9000 M⁻¹ s⁻¹
- IC50 [7]: Not active
- interaction with biotinylated IZN36 (IZN36): clear interaction
- interaction with biotinylated IQN17 (IQN17): evident interaction

B3: B11 IgG: full length human IgG1/kappa carrying B11 VH (SEQ ID NO:10) and VL (SEQ ID NO:12) (antibody, V domains shown)
VH: QVQLVQSGAEVKKPGSSVKVSCKASGGTFSSYAISWVRQAPGQGLEWMGGIIPLFDTSNYAQNFQGRITITADKSTSTAYMELSSLRFEDTAIYYCARDNPLLLAMDVWGKGTTVTVSS
VL: DIQMTQSPSTLSASIGDRVTITCRASEGIYHWLAWYQQKPGKAPKLLIYKASSLASGAPSRFSGSGSGTDFTLTISSLQPDDFATYYCQQYSNYPLTFGGGTKLEIK
modifications: human IgG1/kappa constant regions; Homo sapien
- IC50 (CCR5-tropic strain BaL; HIV-BaL, single cycle infectivity assay): 73 nM
- IC50 ([5]; HIV 89.6, single cycle infectivity assay): 943 nM
- IC50 (HIV strain MN-1): 244 nM
- IC50 ([1]; HIV-HXB2, single cycle infectivity assay): 290 nM

B4: D5 scFv: human scFv from phage display, SEQ ID NO:2, VH and VL joined by (G4S)3 linker; binds gp41 HR1 hydrophobic pocket (protein)
scFv: QVQLVQSGAEVRKPGASVKVSCKASGDTFSSYAISWVRQAPGQGLEWMGGIIPIFGTANYAQKFQGRVTITADESTSTAYMELSSLRSEDTAIYYCARDNPTLLGSDYWGKGTLVTVSSGGGGSGGGGSGGGGSDIQMTQSPSTLSASIGDRVTITCRASEGIYHWLAWYQQKPGKAPKLLIYKASSLASGAPSRFSGSGSGTDFTLTISSLQPDDFATYYCQQYSNYPLTFGGGTKLEIK
modifications: Homo sapien
- effect on HIV-BaL replication (CCR5-tropic strain BaL; single cycle infectivity assay): inhibited replication of HIV-BaL
- prevention of infection by VSV-G pseudotyped particles [7]: Neither D5 nor X5 scFvs prevented infection
- effect on HIV-HXB2 replication [1]: inhibited HIV—HXB2 replication
- ability to prevent HIV-1 entry [2]: capable of inhibiting HIV-1 entry
